Source: patent publication US20120172293A1 (Takeda / Millennium, published 2012)
Non-standard residues stand in square brackets, D forms with d. tBuAla = CC(C)(C)C[C@H](N)C(=O)O; 4Pal = N[C@@H](Cc1ccncc1)C(=O)O; dHyp = O=C(O)[C@H]1C[C@H](O)CN1; Cha = N[C@@H](CC1CCCCC1)C(=O)O; Iva = CC[C@](C)(N)C(=O)O; Aib = CC(C)(N)C(=O)O

Key:
[1] = target: human Y2 receptor (human) (UniProt P49146); assay: RBA: displacement of [125I]-PYY from hY2R/CHO membranes
[2] = target: human Y2 receptor (human) (UniProt P49146); assay: cell-based or functional assay

Sequence of human Y2 receptor (human) (P49146 whole entry): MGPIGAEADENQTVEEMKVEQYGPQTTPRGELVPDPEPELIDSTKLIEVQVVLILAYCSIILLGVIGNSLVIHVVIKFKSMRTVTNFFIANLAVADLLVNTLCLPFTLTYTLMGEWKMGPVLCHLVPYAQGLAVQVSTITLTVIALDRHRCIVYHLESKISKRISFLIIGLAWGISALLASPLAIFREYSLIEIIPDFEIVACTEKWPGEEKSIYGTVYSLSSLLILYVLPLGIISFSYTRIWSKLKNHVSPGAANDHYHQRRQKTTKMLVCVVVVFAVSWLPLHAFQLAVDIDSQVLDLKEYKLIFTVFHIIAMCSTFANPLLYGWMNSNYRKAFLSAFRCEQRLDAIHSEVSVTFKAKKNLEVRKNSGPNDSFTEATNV

Work on “4-Imidazolecarbonyl-[D-Hyp24, Iva25, Pya(4)26, Cha27,36, Aib28,31, Lys30]-PYY(23-36) (peptide)” yielded an IC50 Ratio (IC50 compound/IC50 PYY(3-36)) [1] of 1.3 and a GBA EC50 Ratio ([35S]GTPγS binding) (EC50 compound/EC50 PYY(3-36)) [2] of 0.92.

Work on “Ac-[D-Pro24, Tyr(Me)26, Cha27,36, Aib28,31, Lys30]-PYY(23-36) (peptide)” yielded an IC50 Ratio (IC50 compound/IC50 PYY(3-36)) [1] of 0.88 and a GBA EC50 Ratio ([35S]GTPγS binding) (EC50 compound/EC50 PYY(3-36)) [2] of 1.4.

Molecule “Ac-[D-Hyp24, Iva25,28, Pya(4)26, Cha27,36, Lys30, Aib31]-PYY(23-36) (peptide)” has an IC50 Ratio (IC50 compound/IC50 PYY(3-36)) [1] of 0.86 and a GBA EC50 Ratio ([35S]GTPγS binding) (EC50 compound/EC50 PYY(3-36)) [2] of 1.

“(cis-2,6-Dimethylmorpholin-4-yl)carbonyl-[D-Pro24, Pya(4)26, Cha27,36, Aib28,31, Lys30]-PYY(23-36) (peptide)” showed an IC50 Ratio (IC50 compound/IC50 PYY(3-36)) [1] of 0.91 and a GBA EC50 Ratio ([35S]GTPγS binding) (EC50 compound/EC50 PYY(3-36)) [2] of 0.65.

“(3-Carboxypropyl)carbamoyl-[D-Hyp24, Iva25, Pya(4)26, Cha27,36, Leu(Me)28, Lys30, Aib31]-PYY(23-36) (peptide)” was tested, and the IC50 Ratio (IC50 compound/IC50 PYY(3-36)) [1] was 0.57 and the GBA EC50 Ratio ([35S]GTPγS binding) (EC50 compound/EC50 PYY(3-36)) [2] was 1.7.

With “Ac-[D-Hyp24, Iva25, Pya(4)26, Cha27,36, Aib28,31, Lys30]-PYY(23-36) (peptide)” the IC50 Ratio (IC50 compound/IC50 PYY(3-36)) [1] was 1.5 and the GBA EC50 Ratio ([35S]GTPγS binding) (EC50 compound/EC50 PYY(3-36)) [2] was 1.4.

For “Tetrahydro-2H-pyran-4-yl-carbamoyl-[D-Pro24, Pya(4)26, Cha27,36, Aib28,31, Lys30]-PYY(23-36) (peptide)”, the IC50 Ratio (IC50 compound/IC50 PYY(3-36)) [1] was 0.52 and the GBA EC50 Ratio ([35S]GTPγS binding) (EC50 compound/EC50 PYY(3-36)) [2] was 0.61.

For “3-Carboxypropionyl-[D-Hyp24, Iva25, Pya(4)26, Cha27,36, Leu(Me)28, Lys30, Aib31]-PYY(23-36) (peptide)”, the IC50 Ratio (IC50 compound/IC50 PYY(3-36)) [1] was 0.92 and the GBA EC50 Ratio ([35S]GTPγS binding) (EC50 compound/EC50 PYY(3-36)) [2] was 1.9.

With “Ac-[D-Pro24, Pya(4)26, Cha27, Aib28,31, Lys30, Phe(2Me)36]-PYY(23-36) (peptide)” the IC50 Ratio (IC50 compound/IC50 PYY(3-36)) [1] was 1 and the GBA EC50 Ratio ([35S]GTPγS binding) (EC50 compound/EC50 PYY(3-36)) [2] was 0.98.

With “4-Imidazolecarbonyl-[D-Hyp24, Iva25, Pya(4)26, Cha27,36, Leu(Me)28, Lys30, Aib31]-PYY(23-36) (peptide)” the IC50 Ratio (IC50 compound/IC50 PYY(3-36)) [1] was 0.75 and the GBA EC50 Ratio ([35S]GTPγS binding) (EC50 compound/EC50 PYY(3-36)) [2] was 1.4.

In the case of “Ac-[D-Pro24, Pya(4)26, Cha27,36, Aib28,31, Lys(Me2)30]-PYY(23-36) (peptide)”, the IC50 Ratio (IC50 compound/IC50 PYY(3-36)) [1] is reported as 1.1 and the GBA EC50 Ratio ([35S]GTPγS binding) (EC50 compound/EC50 PYY(3-36)) [2] is reported as 1.7.

Molecule “2-Methylbutanoyl-[D-Pro24, Pya(4)26, Cha27,36, Aib28,31, Lys30]-PYY(23-36) (peptide)” has an IC50 Ratio (IC50 compound/IC50 PYY(3-36)) [1] of 0.54 and a GBA EC50 Ratio ([35S]GTPγS binding) (EC50 compound/EC50 PYY(3-36)) [2] of 0.78.

B1: Ac-[Glu23, D-Hyp24, Pya(4)26, Cha27,36, Aib28,31, Lys30]-PYY(23-36) (peptide)
peptide: Ac-E[dHyp]R[4Pal][Cha][Aib]NK[Aib]TRQR[Cha]-NH2
SMILES: CC(=O)N[C@@H](CCC(=O)O)C(=O)N1C[C@@H](O)C[C@@H]1C(=O)N[C@@H](CCCNC(=N)N)C(=O)N[C@@H](Cc1ccncc1)C(=O)N[C@@H](CC1CCCCC1)C(=O)NC(C)(C)C(=O)N[C@@H](CC(N)=O)C(=O)N[C@@H](CCCCN)C(=O)NC(C)(C)C(=O)N[C@H](C(=O)N[C@@H](CCCNC(=N)N)C(=O)N[C@@H](CCC(N)=O)C(=O)N[C@@H](CCCNC(=N)N)C(=O)N[C@@H](CC1CCCCC1)C(N)=O)[C@@H](C)O
With B1 the IC50 Ratio (IC50 compound/IC50 PYY(3-36)) [1] was 3.4 and the GBA EC50 Ratio ([35S]GTPγS binding) (EC50 compound/EC50 PYY(3-36)) [2] was 2.2.

B2: Ac-[D-Hyp24, Cha27,36, Leu(Me)28, Lys30, Aib31]-PYY(23-36) (peptide)
peptide: Ac-S[dHyp]RH[Cha][tBuAla]NK[Aib]TRQR[Cha]-NH2
SMILES: CC(=O)N[C@@H](CO)C(=O)N1C[C@@H](O)C[C@@H]1C(=O)N[C@@H](CCCNC(=N)N)C(=O)N[C@@H](Cc1c[nH]cn1)C(=O)N[C@@H](CC1CCCCC1)C(=O)N[C@@H](CC(C)(C)C)C(=O)N[C@@H](CC(N)=O)C(=O)N[C@@H](CCCCN)C(=O)NC(C)(C)C(=O)N[C@H](C(=O)N[C@@H](CCCNC(=N)N)C(=O)N[C@@H](CCC(N)=O)C(=O)N[C@@H](CCCNC(=N)N)C(=O)N[C@@H](CC1CCCCC1)C(N)=O)[C@@H](C)O
Molecule B2 has an IC50 Ratio (IC50 compound/IC50 PYY(3-36)) [1] of 0.38 and a GBA EC50 Ratio ([35S]GTPγS binding) (EC50 compound/EC50 PYY(3-36)) [2] of 0.76.

B3: Ac-[D-Pro24, Pya(4)26, Cha27,36, Aib28,31, Trp30]-PYY(23-36) (peptide)
peptide: Ac-S[dP]R[4Pal][Cha][Aib]NW[Aib]TRQR[Cha]-NH2
SMILES: CC(=O)N[C@@H](CO)C(=O)N1CCC[C@@H]1C(=O)N[C@@H](CCCNC(=N)N)C(=O)N[C@@H](Cc1ccncc1)C(=O)N[C@@H](CC1CCCCC1)C(=O)NC(C)(C)C(=O)N[C@@H](CC(N)=O)C(=O)N[C@@H](Cc1c[nH]c2ccccc12)C(=O)NC(C)(C)C(=O)N[C@H](C(=O)N[C@@H](CCCNC(=N)N)C(=O)N[C@@H](CCC(N)=O)C(=O)N[C@@H](CCCNC(=N)N)C(=O)N[C@@H](CC1CCCCC1)C(N)=O)[C@@H](C)O
In the case of B3, the IC50 Ratio (IC50 compound/IC50 PYY(3-36)) [1] is reported as 2.5 and the GBA EC50 Ratio ([35S]GTPγS binding) (EC50 compound/EC50 PYY(3-36)) [2] is reported as 2.4.

B4: Ac-[D-Pro24, Cha27,28,36, Iva30, Aib31]-PYY(23-36) (peptide)
peptide: Ac-S[dP]RH[Cha][Cha]N[Iva][Aib]TRQR[Cha]-NH2
SMILES: CC[C@](C)(NC(=O)[C@H](CC(N)=O)NC(=O)[C@H](CC1CCCCC1)NC(=O)[C@H](CC1CCCCC1)NC(=O)[C@H](Cc1c[nH]cn1)NC(=O)[C@H](CCCNC(=N)N)NC(=O)[C@H]1CCCN1C(=O)[C@H](CO)NC(C)=O)C(=O)NC(C)(C)C(=O)N[C@H](C(=O)N[C@@H](CCCNC(=N)N)C(=O)N[C@@H](CCC(N)=O)C(=O)N[C@@H](CCCNC(=N)N)C(=O)N[C@@H](CC1CCCCC1)C(N)=O)[C@@H](C)O
With B4 the IC50 Ratio (IC50 compound/IC50 PYY(3-36)) [1] was 43 and the GBA EC50 Ratio ([35S]GTPγS binding) (EC50 compound/EC50 PYY(3-36)) [2] was 20.

B5: Ac-[Glu23, D-Hyp24, Cha27,28,36, Lys30, Aib31]-PYY(23-36) (peptide)
peptide: Ac-E[dHyp]RH[Cha][Cha]NK[Aib]TRQR[Cha]-NH2
SMILES: CC(=O)N[C@@H](CCC(=O)O)C(=O)N1C[C@@H](O)C[C@@H]1C(=O)N[C@@H](CCCNC(=N)N)C(=O)N[C@@H](Cc1c[nH]cn1)C(=O)N[C@@H](CC1CCCCC1)C(=O)N[C@@H](CC1CCCCC1)C(=O)N[C@@H](CC(N)=O)C(=O)N[C@@H](CCCCN)C(=O)NC(C)(C)C(=O)N[C@H](C(=O)N[C@@H](CCCNC(=N)N)C(=O)N[C@@H](CCC(N)=O)C(=O)N[C@@H](CCCNC(=N)N)C(=O)N[C@@H](CC1CCCCC1)C(N)=O)[C@@H](C)O
Molecule B5 has an IC50 Ratio (IC50 compound/IC50 PYY(3-36)) [1] of 0.8 and a GBA EC50 Ratio ([35S]GTPγS binding) (EC50 compound/EC50 PYY(3-36)) [2] of 1.3.
